According to patent publication US20150152150A1:

What follows are substances tested against human Y4 receptor (human) (UniProt P50391) (assay: cell-based or functional assay).
Chain of human Y4 receptor (human) (P50391 whole entry): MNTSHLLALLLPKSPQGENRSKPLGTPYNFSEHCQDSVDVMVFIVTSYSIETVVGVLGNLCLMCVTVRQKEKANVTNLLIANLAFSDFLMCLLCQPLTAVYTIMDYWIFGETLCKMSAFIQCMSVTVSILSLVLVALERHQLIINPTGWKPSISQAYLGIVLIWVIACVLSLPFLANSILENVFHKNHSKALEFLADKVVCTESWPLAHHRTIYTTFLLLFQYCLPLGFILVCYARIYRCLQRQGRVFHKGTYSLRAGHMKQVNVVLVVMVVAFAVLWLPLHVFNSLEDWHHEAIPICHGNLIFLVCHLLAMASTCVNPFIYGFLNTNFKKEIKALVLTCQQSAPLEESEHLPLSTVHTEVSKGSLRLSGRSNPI

EC50, Actone functional potency assay, > 1000 nM:
4-N{alpha}-(3-Methylbutanoyl)-7-N{Epsilon}-[2-[2-[2-[[2-[2-[2-[[(4S)-4-carboxy-4-(16-sulfohexadecanoylamino)-butanoyl]amino]ethoxy]ethoxy]acetyl]amino]ethoxy]-ethoxy]acetyl]-[Arg4,Lys7,D-isoAsp11,Gln18,Trp30,NMeArg35]hPYY(4-36) (peptide)
4-N{alpha}-(3-Methylbutanoyl)-7-N{Epsilon}-[2-[2-[2-[[2-[2-[2-[[(4S)-4-carboxy-4-(16-sulfohexadecanoylamino)butanoyl]amino]ethoxy]ethoxy]acetyl]amino]-ethoxy]ethoxy]acetyl]-[Lys7,Gln18,Trp30,NMeArg35]hPYY(4-36) (peptide)
4-N{alpha}-(3-Methylbutanoyl)-7-N{Epsilon}-[2-[2-[2-[[2-[2-[2-[[(4S)-4-carboxy-4-[[(4S)-4-carboxy-4-(16-sulfohexadecanoylamino)butanoyl]amino]butanoyl]amino]-ethoxy]ethoxy]acetyl]amino]ethoxy]ethoxy]acetyl]-[Lys7,Gln18,Trp30,NMeArg35] hPYY(4-36) (peptide)

The substances below were run against human Y1 receptor (human) (UniProt P25929) (assay: cell-based or functional assay).
Chain of human Y1 receptor (human) (P25929 whole entry): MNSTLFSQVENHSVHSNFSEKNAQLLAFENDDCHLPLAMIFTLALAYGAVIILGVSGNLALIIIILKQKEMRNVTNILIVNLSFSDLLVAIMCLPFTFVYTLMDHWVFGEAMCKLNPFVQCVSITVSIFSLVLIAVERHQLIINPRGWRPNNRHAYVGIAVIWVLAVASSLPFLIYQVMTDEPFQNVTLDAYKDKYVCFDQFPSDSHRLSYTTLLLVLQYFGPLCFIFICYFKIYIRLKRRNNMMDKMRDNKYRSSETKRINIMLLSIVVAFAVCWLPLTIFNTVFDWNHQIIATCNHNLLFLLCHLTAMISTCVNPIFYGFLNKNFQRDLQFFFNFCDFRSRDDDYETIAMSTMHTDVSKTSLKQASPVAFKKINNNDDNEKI

EC50, Actone functional potency assay, > 1000 nM:
4-N{alpha}-(3-Methylbutanoyl)-7-N{Epsilon}-[2-[2-[2-[[2-[2-[2-[[2-[2-[2-[[(4S)-4-carboxy-4-(16-sulfohexadecanoylamino)butanoyl]amino]ethoxy]ethoxy]acetyl]-amino]ethoxy]ethoxy]acetyl]amino]ethoxy]ethoxy]acetyl]-[Arg4,Lys7,Gln18,Trp30,NMeArg35]hPYY(4-36) (peptide)
4-N{alpha}-(3-Methylbutanoyl)-7-N{Epsilon}-[2-[2-[2-[[2-[2-[2-[[(4S)-4-carboxy-4-(14-carboxy-tetracanoylamino)butanoyl]amino]ethoxy]ethoxy]acetyl]]amino]ethoxy]-ethoxy]acetyl]-[Arg4,Lys7,Gln18,Trp30,NMeArg35]hPYY(4-36) (peptide)
4-N{alpha}-(3-Methylbutanoyl)-7-N{Epsilon}-[2-[2-[2-[[2-[2-[2-[[(4S)-4-carboxy-4-(14-sulfotetradecanoylamino)butanoyl]amino]ethoxy]ethoxy]acetyl]]amino]ethoxy]-ethoxy]acetyl]-[Arg4,Lys7,Gln18,Trp30,NMeArg35]hPYY(4-36) (peptide)
4-N{alpha}-(3-Methylbutanoyl)-7-N{Epsilon}-[2-[2-[2-[[2-[2-[2-[[(4S)-4-carboxy-4-(15-carboxypentadecanoylamino)butanoyl]amino]ethoxy]ethoxy]acetyl]amino]-ethoxy]ethoxy]acetyl]-[Arg4,Lys7,Gln18,Trp30,NMeArg35]hPYY(4-36) (peptide)
4-N{alpha}-(3-Methylbutanoyl)-7-N{Epsilon}-[2-[2-[2-[[2-[2-[2-[[(4S)-4-carboxy-4-(16-carboxy-hexadecanoylamino)butanoyl]amino]ethoxy]ethoxy]acetyl]]amino]ethoxy]-ethoxy]acetyl]-[Arg4,Lys7,Gln18,Trp30,NMeArg35]hPYY(4-36) (peptide)
4-N{alpha}-(3-Methylbutanoyl)-7-N{Epsilon}-[2-[2-[2-[[2-[2-[2-[[(4S)-4-carboxy-4-(16-sulfohexadecanoylamino)-butanoyl]amino]ethoxy]ethoxy]acetyl]amino]ethoxy]-ethoxy]acetyl]-[Arg4,Lys7,Gln18,Trp30,NMeArg35]hPYY(4-36) (peptide)
4-N{alpha}-(3-Methylbutanoyl)-7-N{Epsilon}-[2-[2-[2-[[2-[2-[2-[[(4S)-4-carboxy-4-(16-sulfohexadecanoylamino)butanoyl]amino]ethoxy]ethoxy]acetyl]amino]-ethoxy]ethoxy]acetyl]-[Lys7,Gln18,Trp30,NMeArg35]hPYY(4-36) (peptide)
4-N{alpha}-(3-Methylbutanoyl)-7-N{Epsilon}-[2-[2-[2-[[2-[2-[2-[[(4S)-4-carboxy-4-(17-carboxyheptadecanoylamino)butanoyl]amino]ethoxy]ethoxy]acetyl]amino]ethoxy]-ethoxy]acetyl]-[Arg4,Lys7,Gln18,Trp30,NMeArg35]hPYY(4-36) (peptide)
4-N{alpha}-(3-Methylbutanoyl)-7-N{Epsilon}-[4-[3-[2-[2-[3-[[4-[3-[2-[2-[3-[[(4S)-4-carboxy-4-(16-sulfohexadecanoylamino)butanoyl]amino]propoxy]ethoxy]-ethoxy]propylamino]-4-oxobutanoyl]amino]propoxy]ethoxy]ethoxy]propylamino]-4-oxobutanoyl]-[Arg4,Lys7,Gln18,Trp30,NMeArg35]hPYY(4-36) (peptide)
4-N{alpha}-(3-Methylbutanoyl)-7-N{Epsilon}-[4-[3-[2-[2-[3-[[(4S)-4-carboxy-4-(16-sulfohexadecanoylamino)butanoyl]amino]propoxy]ethoxy]ethoxy]propylamino]-4-oxobutanoyl]-[Arg4,Lys7,Gln18,Trp30,NMeArg35]hPYY(4-36) (peptide)
4-N{alpha}-(3-Methylbutanoyl)-7-N{Epsilon}-[(2S)-2-amino-6-[[2-[2-[2-[[(4S)-4-carboxy-4-(16-sulfohexadecanoylamino)butanoyl]amino]ethoxy]ethoxy]acetyl]-amino]hexanoyl]]-[Arg4,Lys7,Gln18,Trp30,NMeArg35]hPYY(4-36) (peptide)
4-N{alpha}-(3-methyl-pentanoyl)-7-N{Epsilon}-[2-[2-[2-[[2-[2-[2-[[(4S)-4-carboxy-4-(16-sulfohexadecanoylamino)butanoyl]amino]ethoxy]ethoxy]acetyl]amino]-ethoxy]ethoxy]acetyl]-[Lys7,Gln18,Trp30,NMeArg35]hPYY(4-36) (peptide)
4-N{alpha}-(hexanoyl)-7-N{Epsilon}-[2-[2-[2-[[2-[2-[2-[[(4S)-4-carboxy-4-(16-sulfohexadecanoylamino)butanoyl]amino]ethoxy]ethoxy]acetyl]amino]ethoxy]-ethoxy]acetyl]-[Arg4,Lys7,Gln18,Trp30,NMeArg35]hPYY(4-36) (peptide)
7-N{Epsilon}-[2-[2-[2-[[2-[2-[2-[[2-[2-[2-[[2-[2-[2-[4-[16-(1H-tetrazol-5-yl)-hexadecanoylsulfamoyl]butanoylamino]ethoxy]ethoxy]acetyl]amino]ethoxy]-ethoxy]acetyl]amino]ethoxy]ethoxy]acetyl]amino]ethoxy]ethoxy]acetyl]-[Lys7,Gln18,Trp30,NMeArg35]hPYY(3-36) (peptide)
7-N{Epsilon}-[2-[2-[2-[[2-[2-[2-[[(4S)-4-carboxy-4-(16-sulfohexadecanoylamino)-butanoyl]amino]ethoxy]ethoxy]acetyl]amino]ethoxy]ethoxy]acetyl]-[Arg4,Lys7,Gln18, Trp30,NMeArg35]hPYY(3-36) (peptide)
7-N{Epsilon}-[2-[2-[2-[[2-[2-[2-[[(4S)-4-carboxy-4-(16-sulfohexadecanoylamino)-butanoyl]amino]ethoxy]ethoxy]acetyl]amino]ethoxy]ethoxy]acetyl]-[Lys7,Gln18, Trp30,NMeArg35]hPYY(3-36) (peptide)
